Measured values as given in patent publication US20110008369A1 (Merck Sharp & Dohme, published 2011).
One block for each binder: values may come before it.

Tests used:
[1] = target: T1, homologous Fc (R&D Systems), Fc control surface (human, UniProt P01857-1 100-330 = IgG part, limits assumed); assay: SPR (Biacore 2000), Fc immobilised on a CM5 chip
T1 construct: domain: Fc; Counter-screen surface in the SPR assay; also called human Fc portion
Excerpt: Biacore® instruments incorporate microfluidics technology and surface plasmon resonance (SPR). The angle of polarized light reflecting from the side of a gold-coated sensor opposite to the solution phase is a function of the evanescent wave extending into the solution phase and sensitive to the refractive index near that interface. This refractive index is proportional to the mass density of adsorbates (e.g., an antigen or antibody) near the sensor chip interface, and reported in Response Units. […] Time-resolved signals were acquired from all surfaces simultaneously, and the signal from the blank control surface was subtracted as a negative control.

[2] = target: T2, human PD-1 (Programmed Cell Death 1), expressed on cells (human, UniProt Q15116 25-288); assay: inhibition of recombinant PD-L1/Fc binding to activated human CD4+ cells by 0.2 ug/ml IgG, 37 C (mean of 2)
T2 construct: also called human PD-1 on 293 cells
T2 sequence (Q15116 25-288 limits assumed): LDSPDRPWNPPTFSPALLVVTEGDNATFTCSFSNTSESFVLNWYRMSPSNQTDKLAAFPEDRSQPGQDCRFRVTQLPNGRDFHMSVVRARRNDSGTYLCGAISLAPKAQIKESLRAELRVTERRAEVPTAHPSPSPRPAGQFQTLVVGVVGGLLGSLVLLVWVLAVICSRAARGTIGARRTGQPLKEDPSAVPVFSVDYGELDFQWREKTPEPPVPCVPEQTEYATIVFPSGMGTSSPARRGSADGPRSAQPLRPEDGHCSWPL
Experimental: (§1) 293 cells were transfected to express PD-1 on their cell membranes. Human CD4⁺ cells were activated by incubation with anti-CD3/anti-CD28 beads (approximately 1 bead: 1-2 cells) for 48-72 hours at 37° C. Rhesus CD4⁺ cells (2×10⁶ cells/mL) were activated by incubation in plates coated with 1 μg/mL anti-CD3/anti-CD28 for 24-72 hours at 37° C.

[3] = target: T3, rhesus PD-1 naturally expressed on activated rhesus CD4+ cells (rhesus macaque, UniProt B0LAJ2 25-288); assay: inhibition of recombinant PD-L1/Fc binding to activated rhesus CD4+ cells by 0.2 ug/ml IgG, 37 C (mean of 2)
T3 sequence (B0LAJ2 entry or part of it limits assumed): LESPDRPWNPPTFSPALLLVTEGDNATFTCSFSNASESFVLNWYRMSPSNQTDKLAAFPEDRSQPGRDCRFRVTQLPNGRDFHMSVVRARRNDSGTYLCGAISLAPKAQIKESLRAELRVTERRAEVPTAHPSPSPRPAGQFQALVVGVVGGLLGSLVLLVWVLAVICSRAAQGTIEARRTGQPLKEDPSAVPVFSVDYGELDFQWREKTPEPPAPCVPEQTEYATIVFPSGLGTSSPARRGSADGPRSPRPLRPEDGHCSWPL
Experimental: as §1

[4] = target: T2, human PD-1 (Programmed Cell Death 1), …; assay: cell binding; 0.2 ug/ml IgG on activated human CD4+ cells, 37 C
Experimental: as §1

[5] = target: T2, human PD-1 (Programmed Cell Death 1), …; assay: inhibition of recombinant PD-L1/Fc binding to 293 cells expressing human PD-1 by 20 ug/ml IgG, 4 C
Experimental: as §1

[6] = target: T3, rhesus PD-1 naturally expressed on …; assay: cell binding; 1.0 ug/ml IgG on activated rhesus CD4+ cells, 37 C
Experimental: as §1

[7] = target: T4, recombinant human PD-1/Fc fusion protein (R&D Systems) (human, UniProt Q15116 25-167); assay: solution-phase ELISA of IgG with PD-1/Fc; mean ± standard error of the mean
T4 construct: Bought protein; also called immobilized PD-1; not shown: human Fc portion of the bought fusion protein
T4 sequence (Q15116 25-167 limits assumed): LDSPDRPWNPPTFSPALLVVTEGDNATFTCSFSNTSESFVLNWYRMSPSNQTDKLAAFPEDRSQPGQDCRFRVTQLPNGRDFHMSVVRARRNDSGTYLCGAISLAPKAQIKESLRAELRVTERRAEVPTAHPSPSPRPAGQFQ
Experimental: High-binding 96-well ELISA plates were coated with 50 μL 2 μg/mL PD-1/Fc overnight. After washing and blocking, 50 μL of each PD-1/Fc: IgG mixture was transferred to the ELISA plate, incubated for 30 minutes, washed, incubated with goat anti-mouse antibody conjugated to HRP (human absorbed) for one hour, washed, developed with 10-Acetyl-3,7-dihydroxyphenoxazine ([…]) for three minutes, and read on a fluorescent plate reader. All incubations occurred at room temperature. Data were analyzed as described in K. High et al. Several replicates were conducted on multiple plates and multiple days and analyzed independently to determine a range of experimental equilibrium affinity Kd values.

[8] = target: T4, recombinant human PD-1/Fc fusion …; assay: SPR (Biacore T100), monomeric Fab over covalently immobilised PD-1/Fc; range of fit Kd
Excerpt: Fractions from the purification column were collected and tested in the Caliper LabChip® system. Only fractions containing pure monomeric Fabs were selected for SPR analysis. Beginning with concentrations determined from the Caliper LabChip®, dilution series were made for each Fab and tested on a Biacore® T100 with the standard kinetic affinity wizard against covalently immobilized PD-1/Fc fusion protein.

B1: mAb 1G7 (antibody, V domains shown)
VH: EIQLQQSGPELVKPGASVKVSCKASGYAFTSYNIYWVKQSHGKSLEWIGYIDLYNGDTSYNEKFKGKATLTVDKSASTAYMHLNSLTSEDSAVYYCSREGRLSFDYWGQGTLVTVSA
VL: DIVLTQSPASLAVSLGQRATISCRASESVDSYGNSFMNWYQQKPGQPLKLLIYLASNLDSGVPARFSGSGSGTDFSLTIDPVEADDPATYYCQQNNEVPLTFGAGTKLELKR
notes: Murine IgG from a hybridoma
binding result [1]: no binding (tested: 5 ug/mL (hybridoma supernatant))
% inhibition [2]: 74.3%
% inhibition [3]: 56.5%
MFI [4]: 137 MFI
% inhibition [5]: 98.8%
MFI [6]: 812 MFI

B2: mAb 1.8A10 (antibody, V domains shown)
VH: EVQLVESGGGLVKPGGSLKLSCAASGFTFSNYDMSWIRQTPEKRLEWVAYISGGGGNTYYPDTLKGRFTISRDNAKNTLYLQMSSLKSEDTAMFYCVRISLTGIFDYWGQGTTLTVSS
VL: DVLMTQTPLSLPVSLGDQASISCRSSQSIVQSNGNTYLEWYLQKPGQSPKLLIYKVSNRFSGVPDRFSGSGSGTDFTLKISRVEAEDLGVYYCFQGSHVPWTFGGGTKLEIKR
notes: Murine IgG from a hybridoma
binding result [1]: no binding (tested: 5 ug/mL (hybridoma supernatant))
% inhibition [2]: 51.7%
Kd [7]: 0.44 nM
% inhibition [3]: 24%
MFI [4]: 129 MFI
% inhibition [5]: 99.4%
MFI [6]: 310 MFI

B3: monomeric Fab of mAb 1.8A10 (Fab, V domains shown)
VH: B2 VH
VL: B2 VL
notes: also called 1.8A10 Fab
Kd [8]: 34 to 43 nM

B5: mAb 2.3A9 (antibody, V domains shown)
VH: QVQLQQSDAELVKPGTSVKISCKASGYTFTDHAIHWLKQEPDQGLEWIGYISPGYGDIEYNEKFKGKATLTADKSSSTAYMQLSSLTSEDSAVYFCKVTTGYWGQGTTLTVS
VL: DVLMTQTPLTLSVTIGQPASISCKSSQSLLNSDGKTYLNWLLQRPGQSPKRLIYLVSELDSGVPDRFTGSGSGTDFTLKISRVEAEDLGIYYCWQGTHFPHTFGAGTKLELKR
notes: Murine IgG from a hybridoma
binding result [1]: no binding (tested: 5 ug/mL (hybridoma supernatant))
MFI [4]: 134 MFI

B6: monomeric Fab of mAb 3H4 (Fab, V domains shown)
VH: QIQLQQSGPELVKPGASVKISCKASGYTFTDYYINWVKQKPGQGLEWIGWIYPGSVNTKYNEKFRGKATLTVDTSSSTAYIQLSGLTSEDTAVYFCARYSNWFFDVWGAGTAVTVS
VL: DIVMTQSPSSLSASLGERVSLTCRASQEISGYLSWLQQKPDGTIKRLIYAASTLDSGVPKRFSGSRSGSDYSLSISSLESEDFADYYCLQYASYPYTFGGGTKLEIKR
notes: also called 3H4 Fab
Kd [8]: 63 to 77 nM

B8: monomeric Fab of mAb 1B8 (Fab, V domains shown)
VH: EVQLVLSGGGFVQPGGSLKLSCAASGFTFSSYAMSWVRQNPERRLVWVATITGGGRNTYYPDSVKGRFTISRDNAKNTLYLQMSSLRSEDTAMYYCTRQGYDGYTWFAYWGQGTLVTVS
VL: not shown
notes: also called 1B8 Fab
Kd [8]: 5.3 to 7 nM

Continued, in another order:

% inhibition [3]: 75.3%
MFI [6]: 1240 MFI
B4: mAb 20B3.1 (antibody, V domains shown)
VH: EVKLVESGGGLVKPGGSLKLSCAASGFTFSSFGMSWVRQTPEKRLEWVATISGGGSNTYYPDSVKGRFTISRDNAKNNLYLQMTSLTSEDTALYYCTRIYDVAWFAYWGQGTLVTVS
VL: not shown
notes: Murine IgG from a hybridoma
binding result [1]: no binding (tested: 5 ug/mL (hybridoma supernatant))
% inhibition [2]: 59.6%
MFI [4]: 154 MFI
% inhibition [5]: 98.2%

Kd [7]: 0.011 nM
B7: mAb 3H4 (antibody, V domains shown)
VH: B6 VH
VL: B6 VL
notes: Murine IgG from a hybridoma
binding result [1]: no binding (tested: 5 ug/mL (hybridoma supernatant))
MFI [4]: 130 MFI

Kd [7]: 0.03 nM
% inhibition [3]: 82.3%
MFI [6]: 1190 MFI
B9: mAb 1B8 (antibody, V domains shown)
VH: B8 VH
VL: not shown
notes: Murine IgG from a hybridoma; also called murine 1B8; fully murine 1B8 mAb
binding result [1]: no binding (tested: 5 ug/mL (hybridoma supernatant))
% inhibition [2]: 82.1%
MFI [4]: 145 MFI
% inhibition [5]: 97.6%

% inhibition [3]: 25.5%
MFI [6]: 655 MFI
B10: mAb 7G3 (antibody, V domains shown)
VH: QVQLQQSGTELVRPGVSVKISCKGSGYSFTDYALHWMKQSHAKSLEWIGVISTHYGDTVYNQRFKGKATMTVDKSSSTAYMELARLTSEDSAIYYCAREGYGSLFYFDQWGQGTPLTVS
VL: CLMTQTPLSLPVSLGDQASISCRSSQTIVHSDGNTYLEWYLQKSGQSPKLLIYKVSNRFSGVPDRFSGSGSGTDFTLKISRVEAEDLGVYYCFQGSHVPYTFGGGTRLEIRR
notes: Murine IgG from a hybridoma
binding result [1]: no binding (tested: 5 ug/mL (hybridoma supernatant))
% inhibition [2]: 57.8%
MFI [4]: 129 MFI
% inhibition [5]: 92.7%
